In patent US12338277:

Columns and labels:
Assay in all cases: cell-based or functional assay
[1] = target: HIV-1 Env of pseudovirus Ce2010_F5 (HIV-1)
[2] = target: HIV-1 envelope of pseudovirus 3103.v3.c10 (HIV-1)
[3] = target: HIV-1 envelope of pseudovirus WITO4160.33 (HIV-1)
[4] = target: HIV-1 Env of pseudovirus Ce704809221_1B3 (HIV-1)
[5] = target: HIV-1 Env of pseudovirus 191821_E6_1 (HIV-1)
[6] = target: HIV-1 envelope of pseudovirus BJOX025000.01.1 (HIV-1)
[7] = target: HIV-1 Env of pseudovirus CNE58 (HIV-1)
[8] = target: HIV-1 Env of pseudovirus 191084 B7-19 (HIV-1)
[9] = target: HIV-1 Env of pseudovirus QH0692.42 (HIV-1)
[10] = target: HIV-1 Env of pseudovirus Du422.1 (HIV-1)
[11] = target: HIV-1 Env of pseudovirus 3365.v2.c2 (HIV-1)
[12] = target: HIV-1 Env of pseudovirus CAAN5342.A2 (HIV-1)
[13] = target: HIV-1 envelope of pseudovirus X1254_c3 (HIV-1)
[14] = target: HIV-1 envelope of pseudovirus 3365.v2.c2 (HIV-1)
[15] = target: HIV-1 Env of pseudovirus 0260.v5.c36 (HIV-1)
[16] = target: HIV-1 Env of pseudovirus 89-F1_2_25 (HIV-1)
[17] = target: HIV-1 envelope of pseudovirus 7030102001E5(Rev-) (HIV-1)
[18] = target: HIV-1 envelope of pseudovirus 6811.v7.c18 (HIV-1)
[19] = target: Murine leukemia virus (MuLV) envelope on pseudovirus (Murine leukemia virus)
[20] = target: HIV-1 Env of pseudovirus 6535.3 (HIV-1)
[21] = target: HIV-1 envelope of pseudovirus ZM135M.PL10a (HIV-1)
[22] = target: HIV-1 envelope of pseudovirus ZM214M.PL15 (HIV-1)
[23] = target: HIV-1 envelope of pseudovirus Ce2060_G9 (HIV-1)
[24] = target: HIV-1 Env of pseudovirus WITO4160.33 (HIV-1)
[25] = target: HIV-1 envelope of pseudovirus 1054_07_TC4_1499 (HIV-1)
[26] = target: HIV-1 Env of pseudovirus TRJO4551.58 (HIV-1)
[27] = target: HIV-1 Env of pseudovirus MS208.A1 (HIV-1)
[28] = target: HIV-1 envelope of pseudovirus 231965.c01 (HIV-1)
[29] = target: HIV-1 envelope of pseudovirus BJOX010000.06.2 (HIV-1)
[30] = target: HIV-1 Env of pseudovirus Q842.d12 (HIV-1)
[31] = target: HIV-1 Env of pseudovirus C3347.c11 (HIV-1)
[32] = target: HIV-1 Env of pseudovirus 249M B10 (HIV-1)
[33] = target: HIV-1 envelope of pseudovirus WEAU_d15_410_787 (HIV-1)
[34] = target: HIV-1 envelope of pseudovirus CNE8 (HIV-1)
[35] = target: HIV-1 envelope of pseudovirus YU-2 (HIV-1)
[36] = target: HIV-1 envelope of pseudovirus X1632_S2_B10 (HIV-1)
[37] = target: HIV-1 envelope of pseudovirus PVO.4 (HIV-1)
[38] = target: HIV-1 envelope of pseudovirus 6480.v4.c25 (HIV-1)
[39] = target: HIV-1 envelope of pseudovirus 6540.v4.c1 (HIV-1)
[40] = target: HIV-1 envelope of pseudovirus T255-34 (HIV-1)
[41] = target: HIV-1 Env of pseudovirus 1054_07_TC4_1499 (HIV-1)
[42] = target: HIV-1 envelope of pseudovirus T251-18 (HIV-1)
[43] = target: HIV-1 Env of pseudovirus Q451.e2 (HIV-1)
[44] = target: HIV-1 Env of pseudovirus 6952.v1.c20 (HIV-1)
[45] = target: HIV-1 envelope of pseudovirus Ce0393_C3 (HIV-1)
[46] = target: HIV-1 envelope of pseudovirus 246F C1G (HIV-1)
[47] = target: HIV-1 Env of pseudovirus Ce2060_G9 (HIV-1)
[48] = target: HIV-1 envelope of pseudovirus Ce703010054_2A2 (HIV-1)
[49] = target: HIV-1 envelope of pseudovirus Ce704809221_1B3 (HIV-1)
[50] = target: HIV-1 envelope of pseudovirus RHPA4259.7 (HIV-1)

Sequence of 10-1074 (antibody) (VH): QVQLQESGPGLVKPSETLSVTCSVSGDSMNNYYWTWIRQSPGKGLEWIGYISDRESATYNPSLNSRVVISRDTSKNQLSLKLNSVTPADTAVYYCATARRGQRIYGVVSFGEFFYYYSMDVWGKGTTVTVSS
Sequence of 10-1074 (antibody) (V domain): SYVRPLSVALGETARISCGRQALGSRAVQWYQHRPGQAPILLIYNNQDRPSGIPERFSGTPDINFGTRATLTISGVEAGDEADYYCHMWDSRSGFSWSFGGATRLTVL

With 10-1074 (antibody) the IC80 (TZM-bl neutralization) [1] was > 50 µg/mL, the IC50 (TZM-bl neutralization) [2] was 0.037 µg/mL and the IC50 (TZM-bl neutralization) [3] was 0.185 µg/mL. For the same substance, the IC80 (TZM-bl neutralization) [4] was 0.696 µg/mL, the IC80 (TZM-bl neutralization) [5] was > 50 µg/mL and the IC50 (TZM-bl neutralization) [6] was > 50 µg/mL. For the same substance, the IC80 (TZM-bl neutralization) [7] was 0.968 µg/mL, the IC80 (TZM-bl neutralization) [8] was 0.128 µg/mL and the IC80 (TZM-bl neutralization) [9] was 0.929 µg/mL. It also gave an IC80 (TZM-bl neutralization) [10] of 0.166 µg/mL, an IC80 (TZM-bl neutralization) [11] of 0.45 µg/mL and an IC80 (TZM-bl neutralization) [12] of 0.036 µg/mL. For the same substance, the IC50 (TZM-bl neutralization) [13] was 0.089 µg/mL, the IC50 (TZM-bl neutralization) [14] was 0.131 µg/mL and the IC80 (TZM-bl neutralization) [15] was 0.16 µg/mL. The IC80 (TZM-bl neutralization) [16] was > 50 µg/mL, the IC50 (TZM-bl neutralization) [17] was 0.006 µg/mL and the IC50 (TZM-bl neutralization) [18] was 0.002 µg/mL. For the same substance, the IC50 (TZM-bl neutralization assay) [19] was > 40 µg/mL, the IC80 (TZM-bl neutralization assay) [19] was > 40 µg/mL and the IC80 (TZM-bl neutralization) [20] was 0.026 µg/mL. The IC50 (TZM-bl neutralization) [21] was 0.069 µg/mL, the IC50 (TZM-bl neutralization) [22] was 0.174 µg/mL and the IC50 (TZM-bl neutralization) [23] was > 50 µg/mL. The IC80 (TZM-bl neutralization) [24] was 2.11 µg/mL, the IC50 (TZM-bl neutralization) [25] was 0.129 µg/mL and the IC80 (TZM-bl neutralization) [26] was 0.634 µg/mL. For the same substance, the IC80 (TZM-bl neutralization) [27] was > 50 µg/mL, the IC50 (TZM-bl neutralization) [28] was > 50 µg/mL and the IC50 (TZM-bl neutralization) [29] was > 50 µg/mL. For the same substance, the IC80 (TZM-bl neutralization) [30] was > 50 µg/mL, the IC80 (TZM-bl neutralization) [31] was > 50 µg/mL and the IC80 (TZM-bl neutralization) [32] was > 50 µg/mL. The IC50 (TZM-bl neutralization) [33] was 0.104 µg/mL, the IC50 (TZM-bl neutralization) [34] was > 50 µg/mL and the IC50 (TZM-bl neutralization) [35] was 0.143 µg/mL. For the same substance, the IC50 (TZM-bl neutralization) [36] was > 50 µg/mL, the IC50 (TZM-bl neutralization) [37] was 0.074 µg/mL and the IC50 (TZM-bl neutralization) [38] was 0.009 µg/mL. The IC50 (TZM-bl neutralization) [39] was > 50 µg/mL, the IC50 (TZM-bl neutralization) [40] was > 50 µg/mL and the IC80 (TZM-bl neutralization) [41] was 0.563 µg/mL. For the same substance, the IC50 (TZM-bl neutralization) [42] was 1.08 µg/mL, the IC80 (TZM-bl neutralization) [43] was > 50 µg/mL and the IC80 (TZM-bl neutralization) [44] was 0.138 µg/mL. For the same substance, the IC50 (TZM-bl neutralization) [45] was > 50 µg/mL, the IC50 (TZM-bl neutralization) [46] was 0.022 µg/mL and the IC80 (TZM-bl neutralization) [47] was > 50 µg/mL. The IC50 (TZM-bl neutralization) [48] was > 50 µg/mL, the IC50 (TZM-bl neutralization) [49] was 0.139 µg/mL and the IC50 (TZM-bl neutralization) [50] was 0.021 µg/mL.
